Experimental findings from publication PMC5472768 are described below.

Experiment [1] has as its target CLL183 Fab (Fab of the BcR IG of CLL subset no. 4 case CLL183) (human). Description: AUC; sedimentation velocity, absorbance detection, 72,756g, 20 °C; CLL240 and wild-type CLL183 at 0.1, 0.2 and 0.4 mg ml^-1, CLL183 mutants and the other Fabs up to 1 mg ml^-1; storage buffer (50 mM Tris pH 7, 100 mM glycine) and PBS; monomer-dimer; koff from simultaneous fit of three ….

For experiment [2] the target is unchanged. Description: AUC; sedimentation equilibrium, 0.1, 0.15 and 0.26 mg ml^-1 in storage buffer, 20 °C, four speeds, global fit with a two-state self-association model; dimer to monomers.
Experiment [3] addresses CLL240 Fab (Fab of the BcR IG of CLL subset no. 4 case CLL240) (human). Kind of experiment: AUC; sedimentation velocity, absorbance detection, 72,756g, 20 °C; CLL240 and wild-type CLL183 at 0.1, 0.2 and 0.4 mg ml^-1, CLL183 mutants and the other Fabs up to 1 mg ml^-1; storage buffer (50 mM Tris pH 7, 100 mM glycine) and PBS; monomer-dimer; koff from simultaneous fit of three ….

Experiment [4] has the same target. Kind of experiment: AUC; sedimentation equilibrium, 0.1, 0.15 and 0.26 mg ml^-1 in storage buffer, 20 °C, four speeds, global fit with a two-state self-association model; dimer to monomers.
For experiment [5], the target named is P11475 IgM Fab fragment (Fab of the BcR IG of CLL subset no. 2 case P11475) (human). Kind of experiment: AUC; sedimentation velocity, absorbance detection, 72,756g, 20 °C; CLL240 and wild-type CLL183 at 0.1, 0.2 and 0.4 mg ml^-1, CLL183 mutants and the other Fabs up to 1 mg ml^-1; storage buffer (50 mM Tris pH 7, 100 mM glycine) and PBS; monomer-dimer; koff from simultaneous fit of three ….

For experiment [6] the target is unchanged. Description: ITC; dilution ITC, VP-ITC, 20 °C; 20 mM Tris pH 7.4, 100 mM glycine, 100 mM NaCl; Fab at the maximum achievable concentration (300-400 μM) injected into buffer; dimer to monomers.

B1: CLL183 Fab (Fab of the BcR IG of CLL subset no. 4 case CLL183) (Fab, V domains shown)
VH: QLQLQQWGAGLLKPSETLSLTCAVYGGSFSGYYWTWIRQSPGKGLEWIGEINHSGSTTYNPSLKSRVTISVDTSKNQFSLKLNSVTAADTAVYYCARGYGDTPTIRRYYYYGMDVWGQGTTVTVSS
VL: DVVMTQSPLSLPVTLGQPASISCRSSQSLVHSDGNTYLNWFQQRPGQSPRRLIYKVSDRDSGVPDRFSGSGSGTDFTLKISRVEAEDVGLYYCMQGTHWPPYTFGQGTKVEIK
As a reminder, the koff is a measure of how fast the partners let go of each other. Read a high koff as fast dissociation. Broadly, the stoichiometry N is a count of units in the complex or per binding partner. As a reminder, the Kd is the concentration at which binding is half-saturated. Higher therefore signals a looser complex. In experiment [1], B1 showed a koff of 1.99e-05 s⁻¹ and a stoichiometry N of 2. For the same molecule, in experiment [2], the equilibrium dissociation constant (Kd) worked out at 15.6 µM.

B2: CLL240 Fab (Fab of the BcR IG of CLL subset no. 4 case CLL240) (Fab, V domains shown)
VH: QVQLQQWGAGLLKPSETLSLNCAVYGESFSGYYWSWIRQPPGKGLEWIGEINHSGSTNYNPSLKSRVTISVDTSKNQFSLKLSSVTAADAAIYYCARGYADTPVFRRYYYYGMDVWAKGTTVTVSS
VL: DIVMTQSPLSLPVTLGQPASISCRSSQSLVHSDGNTYLNWFQQRPGQSPRRLIYKVSDRDSGVPDRFSGSGSGTDFTLKISRVEAEDVGVYYCMQGTHWPPYTFGQGTKVEIK
For the molecule B2, in experiment [3], the off-rate constant (koff) is 0.000263 s⁻¹ and the stoichiometry N is 2. In experiment [4], this molecule came in with a Kd of 14 µM.

B3: P11475 IgM Fab fragment (Fab of the BcR IG of CLL subset no. 2 case P11475) (Fab, V domains shown)
VH: EVQLVESGGGLVKPGGSLRLSCAASGFTFRSYSMNWVRQAPGKGLEWVSSIISSSSYIYYADSVKGRFTISRDNAKNSLYLQMNSLRAEDTALYYCARDQNAMDVWGQGTTVTVSS
VL: SYELTQPPSVSVAPGKTARITCAGNNIGSKSVHWYQQKPGQAPVLVIYYDSDRPSGIPERFSGSNSGNTATLTISRVEAGDEADYYCQVWDSGSDHPWVFGGGTKLTVL
In the case of B3, the koff in experiment [5] was more than 0.01 s⁻¹. Also, in experiment [6], the Kd was determined as 430 µM and the dH was -5.4 kcal/mol.
